Experimental findings from the NTF2 design screens of Basanta et al. (2020) are described below.

This data set is described as follows: protease stability score; higher = more stable; yeast display proteolysis, trypsin and chymotrypsin.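 Note: relative to predicted unfolded state with 0 unfolded-like and 1 meaning tenfold more protease.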
The sequence “SEIEEELSSDRRDFIRAVLTGDFERHIEQMDPNVKLIFNGKEFHGREEVHRSWEELIDRWGVDKFEYRIEDMEHFPGHLMIHGTLNYNGKRERVIIYAVKFNGRWRVERVEIK” had a protease stability score of 1.55.

On to “SEIEEESEEHLNLYMHAMHTGDWHTLERLADPNVRMDVNGQEHHGREEFVKVLVHMIEHLGIDHVRVKHLDLQGDKLHADTTEEVNGRRIHTILDVTKINGRWFITSLEIH”, for which the protease stability score came out at 0.495. With “SEIEEFTRKLLEMFLEAFLTGDWKFLWELADPNVRLNVGDKHAHGMESSKHLLDEWLTEMRLRDMHVHSVHFQGEKRDNNGKEHRIYGDKVRLWDVHLHLVIVNGRLKEVNIEER” the figure was 1.31; with “SEIEEHIKHMAHEILHNMLTGDWRRFSELADPNVRITVQQGDKVREYHGWESWKLLLDELRLHRFEFKDMHVQGNYAHIIGRQVGEFDGVRQDRDIEIIHVVVNGRIKQVIVHVE”, 1.86. Turning to “SEIEELMKISLREFLHSSETGDEEHHNRYADPNVRLEIGDKTLIGWEALEHLLEHWKREAGIEKIELHIHVTRIHVQGEKLEFDGHLEVRQGDKVNHVKVTLVITKIDGKWVLHSVVFI”, the protease stability score was determined as 0.367. The sequence “SEIEELVERAEKEHLRTLMTGDWRLFEHNLDPNTKLELDYDGRKIERHGRRHMSHYLKELFKSLGIKHMHLEDSHIQGDKLELHLHFHIGDKTRNVIIIVRKVNGQWIVETLIVHEH” registered a protease stability score of 0.829. “SEIEEQVEEAYRLILEMLHTGDEHTMHELIDPHVRHRIDGQTYHGREFLIKWLVKLREDWGVEKISVKLKFITIIGDFALVVVDIHINGVKLKNHTLATKVNGRWRDHTVNIEHI” returned a protease stability score of 0.637. To “SEIEERVYRVVETFWMALRTGDEETLDDLLDPNVKLDIDGKEFHGREKYKEFLELFKGVTVESVEFRDSKISGEKAIIHVHVTLRQGDKEEHKSTELVLYKINGRWIIEHVRLK” belongs 2.21; to “SEIEETTRQASEFNLHSFRTGDEKMVHELADPHVRTDFNGKRLHGRESLTKELDKLLKDLGVDHVRIEHVNIYNGRVDIIMRVEVGDKEWKITIIAIKIDGKWKLESIEME”, 0.132. With “SEIEHNLRLAEELLEKVTQTGNEELLHDLIDPNVRFYINGRDFVGREKNIKVFRSWGIDRVHFESEHIDIQGNKINFHGQINVNGKSMDTQIIAVKVNGRWLIKESWVD” the figure was 0.565; with “SEIEHVVKRAIKIFIEVLETGDWELMWRLLDPHVRIEVGNKEKHGRHTIEEMIRRVDHIHINERQIHDIEIQGDKVHLHIHLNVEERVGDKRLNFEFELHIIAEKVNGRWIVRSVTIK”, 1.62.

The sequence “SEIEKDAKDALKWFVDTTRTGDEDLWLRLLDPHVRVIIGDKEYHGREESEKLIRHLSDLFGVDKVEVILNLERIHIQGNKIDVKGKLEVRQGNYTDDREIEMVMIKVNGRWFIKYEVIK” displayed a protease stability score of 1.18. In the case of “SEIEKESEKIWKIWFHNLETGNWREIARLFDPHARWRELVDGREVNIVGREEVVRLLSENSEHLRLDDFRETSVRVIGDFVRSDVEMVGTVDGQHERRRVEVIIVTINGRLHSITITHL”, the protease stability score worked out at 1.15. Sequence “SEIEKLLIDWLEHMVRAHKTGDWQNLLNMLDPHTRLNINGQHNIGRDKLTHLIREEEDRFGVDNIELHLHLEDIDIQGEKVNMKVQRHVNVNGREYTDEVELIIVKINGRWLLESIHVH” registered a protease stability score of 0.932. With “SEIEKMFHIALKLWVRTMKTGDFEDLLRLLDPNWRLEVNGRTHHGREELEHEIRELGIDQFHLHHIEHKEFLVQGEKITIDGRINGEFNGVQYNTRVIIIAKKINGRWVLHSEEIK” the figure was 1.37. To “SEIERDAREFLRVLLEHLHTGDEDDLARLADPHVLIDIDGREIVGRELFREIWHEMGVNHTEYKDLDIQGNKLHIHINVNVNGKVRSLRIVVRKVNGRWFIEREHYE” belongs 1.52.

For the sequence “SEIERDVHELIKEVSELTHTGNEEHSKMLLDPNYRVEIGDKTIHGRHLVSHWIKQMRSDITVEIREVRLIDGRLLADIRFVVRIRFDGVELHIEERRVLFWLKVDGQWIIESQRVH”, the protease stability score worked out at 0.827. For the sequence “SEIERESKIFSKIEKHVWETGDEKILSEMADPHARIEIGDKEHHGREEFEKVAHEIVEFFPNMRFRVEHMDVQGNKVDLDTRLHFENHSHRYQVISLKFNGRWLIKSVKIE”, the protease stability score came out at 1.08. With “SEIERLLEEWMELVIHSWLTGNEELFTRMFDPNTRLEVEVGDKHDRHIGREEANKWMETLRREIRIEDIEIKEVRIFDGVAHNDGTLHRRVGDKKDYVRVRLILIIYNGKIHHVKIIVR” the figure was 1.03. With “SEIETILEKVLRELEHRKETGDEESFERYADPNVRMSVDGKDIHGREEVLRSWLETWKLMGVDHSHLHVTDLRIIGNKLEIDGIVRFNVGDKIVHRHSRLIMLKINGRWMIKQVEIH” the figure was 1.22; with “SEIHDIARKMMNIVRRLLHTGDEDKWLDLADPDVRIHINGRDFIGRELWVQIYRELGVDHLDLKIERVEIVDGVIILHGTLDIHYGDKTHEIEINIFIRKVNGRWRLKLEHHK”, 1.71.

With “SEIHDLITTMSRLFWDVIRTGDFEALEKLLDPHTRFEFLIGDKTEEYVGRHNVVRAIMDIWERLGIDHMHLKNVRYQGEKSDIDTEMHFDGRTFDTKIIIVVIDGKLHNVSIEFR”, the protease stability score came to 1.39.

“SEIHELAILVLKWLLDSMSTGDEESLRRLLDPHTRIHIDGKDLHGRHFLERILQEIRHEVKEYHIRDVRDINGVVTLDAHVRGNEYFDGRNHEHRTDTRLIIDKINGRWRIRELKFE” had a protease stability score of 1.12. Sequence “SEIHRDVEEFMKRFDRDLETGDEKILEKLVDPDVKTIVNGKIFHGRETFIKLMLTIFKEMRNEHVELQSLEVQGNKAHAETRVRLTIGDWTFYLRTELHLEKYDGRWRFHSVTIE” yielded a protease stability score of 1.93. “SEIKEEMDEVSELWQRALETGDEHEVLKLMDPHARIDFDGVDHVGWREVTKSLKHMRIDHIKIRHITVIGNKIDIDGEVNMTVNGQERQETVHIELIVVNGRIRHIRIHLV” gave a protease stability score of 0.396. Consider “SEIKENLHRFFERWQEVLRTGDERHIRDMADPNVRLDVNGKEIHGRELFANWIREHIERVDHISVHIHDMDIYGNKAKIRGELELDQGDKKHHLDLEIVTTKVDGKWILRSVHVR”, for which the protease stability score was found to be 2.12. To “SEINERTERLMKWLLHAILTGDEDLLSTLADPNVRVIVGDKSVIGMESWYRLFEEELRHLGIKHMQLDPRHVDTQGDKARVETRLRVWVDGVELTHETRLHLDVVNGRITKISIRIH” belongs 1.16; to “SEIQDISDLAFELIWRSLNTGDEHMLLELLDPDARTHVNGKTFHGRESAVHLFRYLLTLMGIDHIHIEDFKIEFQGDKVIIRMTTRSHQGDKEFHTRFLIIVRKVDGRWINEEISIHVE”, 0.937. For “SEIQHELSEMMKIVIHQFLTGDEEEFRHLVDPNVKFIFNGRLLIGWKSLSDFLKEHLERVDHWHVEIKRVRVYDGRLDISGRLRLVQGDKEHNLDVRMHLETIDGKITSVEIRVH”, the protease stability score came out at 1.28. To “SEIREETQRVIEEFLRNHKTGDESLFHELADPNARLHFHQGDKRLDFIGREHVLEFWSRVSKELGVDHVELKDHKLQGDKMILHIESEVNGRRMIIIDISDKIDGRWVLHTLHIHVE” belongs 0.466. To “SEIWHLAENLSHLWMHKILTGDEDSIRNLLDPNARVHVNGKEVHGREETVKFMRHRVDEMGVDHMHFELKRFEVQGNYAIHHGTLIIHVDGREIRIESTIHLLKVNGRWLITDSSER” belongs 0.845; to “SEKDDFLEQLQKLWHEILVTGDEHRLKKLADPDMRFIYGDFESIGREEFLQMMRDMLREIRITHIELRTFDAYDGQLIILTTQHVSIGDKRIELTVHLFWIKVDGKWKLRRLKFE”, 1.79; to “SEKDDHALRVLEEYLHLFLTGNEEVMERLVDPHVRFIYGDKEFHGRELMIRWIREEREQYDHIHWEIRHFESQGDKAHSEVELRIRQGDKRIHVDMHIHIEVVNGRWKRIEVRER”, 1.78.

For the sequence “SEKDELLDEILEKLRHDVETGNERLIRKNLDPHVKTDFNGRELHGMDLALRVWREHHEKVKNIRLEIKSVESVDGVVIIHMHVEIDGRHLDVILRWFVVNGRVKSVEIEIK”, the protease stability score was 0.232.

For “SEKDERVHELLRHVEHALRTGDWEEMVKLADPHVRVIFNGKTLHGREMMNRFWEHFGADHIRIRDEDDYNGVVIVHIETVVGDKHHHVHIISEKIDGKWTMRELSIE”, the protease stability score was determined as 0.933.

Sequence “SEKDQALTEMLEIFLQVHRTGNEEDMHRLADPNARSVYNGQDLHGWEHVFNIMRRIDHIHHVTVKRVEYFDGRVSLDGHINIEIGDKSYHIDISISLRKVDGQWHIESIEFI” had a protease stability score of 0.721. With “SEKDREMEHFAKILISNLVTGDEEEIFRMADPHYRYQQGDKRIHGREEWRQWLREERERVDHIEFKIHRVEQQGEKIHLDWEIQIEIGNYEIKDKTTIIFIVVDGRLKQIEVRHH” the figure was 0.786; with “SEKEDIERKWAERTLETIETGDEHTRRELLDPHVRIIINGKDHHGREFAEEEWRRLGVDHFRTHEYEIQGNFLHVRGEMEIDGKRVEVILNFTIVDGRIKQIEMVYL”, 2.03. In turn, “SEKEEDITRFITMWARYLVTGDEDRSRELLDPSVKMHIGEKNLIGREKLLEFVHRMWRRVDHIHIHFHTIDIQGDKLKVDFEIELRQGDKSDSIRTSMIVDKVDGRWILHKITME” returned a protease stability score of 1.74. To “SEKEEDLRRAEQDFLREMETGDEHLTSELADPHVRIDIGDKVYHGREFWSKFVRRVKNATIQITHRQYQGDKLWLDGILNVDGRNIRMLVIIHKIDGVWVFKYVDIH” belongs 2.27; to “SEKEEELHRALRLWLHAWETGDFHTITKLLDPHARSDVNGVELHGREEISRHHRELRTHDMRIRDEKVHMQGDYLIIILHIHTDVQIGDKRIETDLLIIIIHVKVNGRWSLRSISLEFR”, 0.035; to “SEKEEHLHELTRLLVEWFITGDEEDNLEQADPHVRMILIVDGRIIERHGREKLYEEAHRHLKRLGIDHYRIKHVDIQGEKVKINGQLEFNGVIYDARLTFVVINGKLHQEYRSEE”, 1.64. With “SEKEEISRRLLELWLKADATGDEKLLLKLMDPDVRIDVDGVENHGMELVTEFLREERDRIDHKIIEIKEMRVVGDKVHMDIRINIEVNGKENETRVELRLEIIDGKIRSVKIIKR” the figure was 0.733. To “SEKEELDQKFIEDYIRHLLTGDFESLTKMADPNVRLSIDGQNHHGRENFERFAFEWIEKYKNVRIHVRDVHVVDGQAHIIMTLDINGKTREVHIEVFIVNGRIKSNELRYR” belongs 1.36; to “SEKEEQAFRLFKDIVRSMKTGDEDRLHELFDPNVRMDFNGVESHGRELALEVIRIVWREIRIKNIEVHHIEVIGNYVRIDSRLDGRYDGRRIILEMHVQLVKVDGQWIVHNIEIK”, 2.12. In turn, “SEKEEQARKLAKDWSHDTDTGDFKSIFDLIDPDVRVEIGDKRFVGWELVVKWHEHHRHEFGVTQIRHRVDDMELQGEKVIVRGTLIYDGVDFKVHLILEVINGRIRRVEIRIE” registered a protease stability score of 1.04.

Consider “SEKEERALELIKRFWESELTGNEDWLRHLADPDYLYILLIDGKEHNFHGMETWYEKINRIKGVQIDHLEIRHENVIGDKVEIDGRMDITVNGKRIDKRVELQYSVVDGRFKSVKITNI”, for which the protease stability score was determined as 0.809.
